# Results as given in PMC8558179, “The C-terminal peptide of CCL21 drastically augments CCL21 activity through the dendritic cell lymph node homing receptor CCR7 by interaction with the receptor N-terminus” (Cellular and Molecular Life Sciences: CMLS, 2021).
# T1: human CCR7 (Homo sapiens, UniProt P32248)
# T1 construct: CCR7 contains a 24-residue long signal peptide cleaved of from the mature protein; expressed in transfected cells; host or cells: CHO cells (CHO-K1, CHO suspension WT, GAG-deficient and 5xKO GalNAc-T knockout lines), transient transfection
# T1 sequence (P32248 25-378): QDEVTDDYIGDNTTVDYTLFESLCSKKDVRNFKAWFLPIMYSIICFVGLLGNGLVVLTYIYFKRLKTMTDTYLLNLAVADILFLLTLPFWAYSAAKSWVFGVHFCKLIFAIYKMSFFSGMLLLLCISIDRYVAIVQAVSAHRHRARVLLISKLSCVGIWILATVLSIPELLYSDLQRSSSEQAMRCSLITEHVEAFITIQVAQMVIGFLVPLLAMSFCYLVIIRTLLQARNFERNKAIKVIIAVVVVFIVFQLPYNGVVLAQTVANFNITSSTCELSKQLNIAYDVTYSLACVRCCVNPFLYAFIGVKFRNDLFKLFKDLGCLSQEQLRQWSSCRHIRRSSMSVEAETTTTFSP
# B1: CCL21: full-length chemokine (residues 1–111), CCR7 ligand, from R&D Systems (protein, UniProt O00585 24-134, looked up)
# C-C motif chemokine 21: SDGGAQDCCLKYSQRKIPAKVVRSYRKQEPSLGCSIPAILFLPRKRSQAELCADPKELWVQQLMQHLDKTPSPQKPAQGCRKDRGASKTGKKGKGSKGCKRTERSQTPKGP
# Legend:
# human CCR7 = target: T1, human CCR7; test: β-arrestin recruitment, BRET-based assay at CCR7; type: cell-based
# Method: For cAMP assays, adherent CHO cells were transfected using lipofectamine while suspension cells were transfected using the FectoPro method. Cells were seeded in a 6-well plate, either 500,000 (adherent cells) or 200,000 (suspension cells) cells/well. The next day the cells were transiently transfected with vectors encoding the human CCR7 and CAMYEL sensor (cAMP sensor using YFP-Epac-RLuc) in a 1:5 ratio using lipofectamine (6 µl/well) or FectoPro (4 µl/well). Lipofectamine transfections were terminated by changing to 2 ml fresh cultivation medium after 5 h, while Fectopro transfection was terminated after 3 h by adding 2.5 ml fresh cultivation medium and 2 µl FectoPro Boost reagent per well. The cells were incubated under standard cultivation conditions overnight. For β-arrestin recruitment assays, cells were transfected with CCR7 and vectors expressing a Renilla luciferase arrestin3 fusion protein and membrane-SH3-citrine protein. The cells were then resuspended in PBS w/glucose and seeded in 96-well white iso plates (~ 25,000 cells/well). Coelenterazine (bioluminescence substrate) was added to a final conc. of 5 µM. After 10 min, cells were stimulated with varying ligand concentrations for a total of 40 min. Forskolin was added to each well 5 min after ligand addition to reach a final conc. of 5 µM. The plates were kept in the dark at all times. Emission signal from Rluc and eYFP was measured using the Envision machine at 530 and 480 nm and the BRET signal determined as the ratio between (eYFP/Rluc).
# [1] = system: human moDCs naturally expressing CCR7; test: 3D chemotaxis, time-lapse recording of human moDCs in Collagen I (chemotactic index); type: cell-based
# Method: Buffy coats were obtained from Rigshospitalet Copenhagen, as anonymous material, with written informed consent from the donors. The local ethics committee at Faculty of Health and Medical Sciences at the University of Copenhagen (Research Ethics Committee for Sund and Science, University of Copenhagen) found the project exempt from approval. DCs were prepared from human peripheral blood mononuclear cells (PBMC) isolated from buffy coats by centrifugation on a Lymphoprep gradient as previously described. Briefly, monocytes were isolated by plastic adherence of PBMC. Adhered monocytes were subsequently cultured and differentiated into immature DCs by incubation with IL-4 (250 U/ml) and GM-CSF (1000 U/ml) for 6 days, followed by activation into mature DCs by incubation with IL-6 (1000 U/ml), IL-1β (1000 U/ml), TNF-α (1000 U/ml), and PGE2 (1 µg/ml) for an additional 2 days in the same medium.
# Human DCs were cultured in X-vivo 15 medium with 2% human AB serum and glutamine. CHO-K1 pgsB-618 ATCC® CRL2241™ [24] and CHO-K1 cells were grown in RPMI with 10% FBS and Penicillin/Streptomycin. HS^−/− (CHO EXTL 2/3 −/−), CS^−/− (CSGALNACT 1/2^−/− CHSY1^−/−), 5xKO (GalNAc-T1, 2, 4, 7 and 10 −/−) and WT CHO suspension cells were grown in suspension in 1:1 of EX-Cell CD CHO fusion media and Balanced CD CHO growth A medium supplemented with 2% glutamine and Penicillin/Streptomycin. Cells were kept in a humidified incubator at 37 °C, 5% CO2.
# Chemotaxis assays were conducted as previously described. Briefly, mature human moDCs were left to acclimatize in medium for 30 min at room temperature (RT) upon defrosting, before assay start. DCs were seeded in Bovine Collagen I mixture prepared by mixing 10 µl Na2HCO3 (7.5%), 20 µl MEM (10×), 150 µl PureCol and 90 µl DCs dissolved in X-vivo 15 medium (2 × 10^6 cells/ml). After incubation for 45 min in a humidified incubator at 37 °C (5% CO2), the source and sink reservoirs were filled according to the manufacturer’s instructions and chemotaxis was tracked in a time-lapse microscope with a humidified temperature controlled stage incubator for 12 h at a 2 min interval. Cell migration (approximately 20–40 cells per viewing field) was tracked using a commercial tracking program (Autozell) and subsequently analyzed to get a population-based chemotactic index (CI) value (MATLAB). CI is a measure of net translocation distance to the source relative to total distance traveled and was thus calculated as the ratio of the distance traveled in the direction of the gradient over the total distance traveled and therefore is a conservative measure of the directedness of cell migration.
# CCL21 = details: cited from earlier work
# Text: Another phenomenon that could explain the C21TP boosting ability would be that the peptide was able to relieve the auto-inhibition of CCL21. The peptide could potentially occupy the site on CCL21 normally contacted by the attached basic C-terminus during the auto-inhibition process, in this way preventing the formation of the locked CCL21 version. In this way the peptide could participate in unfolding of CCL21, similar to the process that is predicted to take place in the presence of polysialic acid residues. The boosting effect of C21TP on CCL19 could also be based on a direct chemokin ...
# Collagen I = details: cited from earlier work
# Text: In the current study we have used Collagen I in the 3D chemotaxis assays. Collagen I has low affinity for CCL21 [31]. Matrigel on the other hand binds CCL21 well. As CCL21 is immobilized in vivo [20], to evaluate the full effect of C21TP on dendritic cell migration, experiments using Matrigel would need to be conducted. Such assay could reveal if C21TP affect the interaction between CCR7 and immobilized CCL21 where the basic tail is participating in surface tethering and potentially unable to engage in steric hindrance of CCR7. Again, since boosting of in vitro signaling occurred in both p ...
Molecule,"effect of C21TP on CCL21^Tailless β-arrestin recruitment (human CCR7; CCL21^Tailless (CCL21 1–79) + 10 µM TP71-111, n = 4)","increase of CCL19-induced DC chemotaxis ([1]; 10 nM CCL19 + 10 µM TP71-111, human moDCs, n = 3–6)","fold boost of CCL21-induced DC chemotaxis (immune cell recruiting activity) ([1]; 10 nM CCL21, highest C21TP concentration 10 µM (0.1–10 µM tested), human moDCs, 12 h tracking, 37 °C, n = 3–11)","boosting of CCL21-induced DC chemotaxis ([1]; 10 nM CCL21, peptide 10 µM (0.1–10 µM in the dose series), human moDCs)","DC chemotaxis by C21TP alone ([1]; C21TP without chemokine, data not shown)","pEC50, β-arrestin recruitment, chemokine alone (human CCR7; no peptide, n = 4)",CCL21 self-association (CCL21),"chemotaxis towards chemokine alone ([1]; 10 nM chemokine, no peptide, human moDCs)",affinity of Collagen I for CCL21 (Collagen I)
"TP71-111: free CCL21 C-terminal peptide, residues 71–111 (41 amino acids, positively charged) (PSPQKPAQGCRKDRGASKTGKKGKGSKGCKRTERSQTPKGP; UniProt O00585 94-134, looked up, fragment)",small but significant decrease,"significantly increased in the presence of 10 µM C21TP (TP71-111), by approximately twofold",up to 25 fold,boosted significantly by the C21TP in a dose-dependent manner,did not induce DC chemotaxis,–,–,–,–
B1,–,–,–,–,–,undetectable,weak and only detectable at mM concentrations,very weak chemotactic cue,low affinity
